Earlier results on 1 molecule are cited in patent publication US20230416704A1, “LACTONASE AND STABILIZED MUTANTS THEREOF FOR TREATING FUNGAL INFECTIONS IN PLANTS” (MIGAL GALILEE RESEARCH INSTITUTE LTD., priority 2020, published 2023).

For the data set the following is noted: as shown in WO 2020/255131; cited from earlier work.

B1: H172Y: M. tuberculosis phosphotriesterase-like lactonase (PPH) with H172 substituted by tyrosine (protein)
chain: MISEFPELNTARGPIDTADLGVTLMHEHVFIMTTEIAQNYPEAWGDEDKRVAGAIARLGELKARGVDTIVDLTVIGLGRYIPRIARVAAATELNIVVATGLYTYNDVPFYFHYLGPGAQLDGPEIMTDMFVRDIEHGIADTGIKAGILKCATDEPGLTPGVERVLRAVAQAYKRTGAPISTHTHAGLRRGLDQQRIFAEEGVDLSRVVIGHCGDSTDVGYLEELIAAGSYLGMDRFGVDVISPFQDRVNIVARMCERGHADKMVLSHDACCYFDALPEELVPVAMPNWHYLHIHNDVIPALKQHGVTDEQLHTMLVDNPRRIFERQGGYQ
With B1, the “temperature of 50% residual activity” value is “about 65 °C”.
